Test results from publication PMC10344899, “ZmmiR169q/ZmNF-YA8 is a module that homeostatically regulates primary root growth and salt tolerance in maize”.

Target: T1, ZmNF-YA8 (Zea mays, UniProt B6SPD7 2-301)
T1 sequence: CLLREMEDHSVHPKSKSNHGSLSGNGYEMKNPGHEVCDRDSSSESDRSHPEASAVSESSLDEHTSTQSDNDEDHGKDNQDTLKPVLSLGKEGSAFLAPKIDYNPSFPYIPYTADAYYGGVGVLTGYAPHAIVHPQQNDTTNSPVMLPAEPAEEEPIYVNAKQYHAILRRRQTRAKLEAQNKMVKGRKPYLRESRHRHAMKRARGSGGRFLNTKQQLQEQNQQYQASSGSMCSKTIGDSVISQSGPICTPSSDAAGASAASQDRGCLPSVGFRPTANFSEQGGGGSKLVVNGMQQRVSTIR
Experiment: EMSA; shifted band reduced by 20x unlabelled probe and eliminated at 40x; 20 min incubation; nondenaturing 4% polyacrylamide gel, 0.5x TBE; LightShift Chemiluminescent EMSA kit; binding buffer, salt, pH and temperature not stated
Settings: protein: recombinant; tags: His (pET28a); blunt

B1: ZmERF1B promoter P1 CCAAT-box EMSA probe (dsDNA)
DNA 1: GGCGCGCATTCGCCTCGCCTCCAATTCCCATCCATCACTAACTTG
DNA 2: CAAGTTAGTGATGGATGGGAATTGGAGGCGAGGCGAATGCGCGCC
- binding result: binds
